Laboratory results published in patent US8871276B2, “Beta-casein assemblies for mucosal delivery of therapeutic bioactive agents” (Technion Research and Development Foundation Ltd., priority 2008, dated 2014).
Values joined by “and” are separate entries in the source; they are usually repeats but may differ in a detail not shown here. Equal values may be shown once.

Columns and labels:
Format in all cases: physicochemical
[1] = Light microscopy (Nomarski DIC) / visual solubility observation; details: hepes buffer, neutral pH, with or without β-casein
Protocol: An Olympus BX51 light microscope was operated at Nomarski differential interference contrast (DIC) optics. A 5 μL drop was placed on a glass slide, covered with a cover slide. Images were recorded digitally with an Olympus DP71 digital camera connected to the light microscope. Image processing was performed using Cell A (Olympus).
Bovine β-casein (>90%; Sigma-Aldrich) was dissolved in pH 7.0 hepes buffer containing 200 mM hepes (MP Biomedicals), 10 mM MgCl2 (Sigma-Aldrich), 20 mM EGTA (Sigma-Aldrich) and 10 mM NaCl (Loba Chemie), and was placed over-night at 4° C. under stirring. The protein solutions were prepared at concentrations ranging from 0.5 to 2 wt % (0.21 to 0.83 mM respectively), and were filtered through a porous membrane of 0.45 μm to avoid large protein aggregates. […] Stirring continued for 30 minutes in room temperature. […] The specimens remained stable i.e., no precipitation was observed, for at least 3 weeks at 4° C.

[2] = Water content by Karl Fischer Coulometer
Protocol: In this experiment the water content of celocoxib (CXB), beta-casein (β-CN) 1% nanocarriers, Sigma beta-casein (β-CN, Sigma material), and CXB-loaded β-CN 1% nanocarriers was measured by Metrohm 831 Karl Fischer Coulometer.
In an attempt to reduce the water content, an additional lypholization cycle was performed for the empty and CXB-loaded β-CN 1% nanocarriers. After this second lyophilization cycle water content was measured by Metrohm 831 Karl Fischer Coulometer.
Specifically, the first cycle lasted for 24 hours (data is presented in tables 5-7) then all samples were subjected to an additional cycle of lyophilization that lasted for 48 hours (total of 72 hours). Tables 8 and 9 present the results of samples that were subjected to 24, […], and 72 hours of lyophilization.

[3] = Small angle X-ray scattering (SAXS) of micelles; details: 1 wt % β-casein, empty or loaded 1:8 protein:celecoxib, pH ~7
[4] = Small angle X-ray scattering (SAXS) of micelles; details: 1 wt % β-casein, empty or loaded 1:8 protein:celecoxib, pH ~7; remark: listed apart in the source
Protocol: The small angle X-ray scattering equipment consisted of a SAXSess camera (Anton-Paar, Graz, Austria) connected to an X-ray generator (Philips, PW 1730/10) operating at 40 kV and 50 mA with a sealed-tube Cu anode. A Gael mirror was used to convert the divergent polychromatic X-ray beam into a focused line-shaped beam of Cu Kα radiation (λ=0.154 nm). The 2D scattering pattern was recorded by a PI-SCX fused fiber optic taper CCD camera from Princeton Instruments, which is a division of Roper Scientific, Inc. (Trenton, N.J., USA). The used CCD detector features a 2084×2084 array with 24×24 μm pixel size (chip size: 50×50 mm). The CCD was operated at −30° C. with 10° C. water-assisted cooling to reduce the thermally generated charge. Cosmic ray correction and background subtraction were performed on the 2D image before further data processing. The 2D image was integrated into the one-dimensional scattering function within a band of 10 mm. The measurement time was 30 min for each scattering curve (6 images of 5 minutes were taken to assist the cosmic ray correction).
The molecular weight of the scattering aggregates were calculated according to Eq. 1:
[formula] where M is the molecular weight, dΣ(0)/dΩ (cm^−1) the forward scattering intensity at q=0, c (g/cm^3) the β-casein concentration, NA the Avogadro number, and ΔρM (cm/g) the scattering length difference per mass, given by: ΔρM=Δρ ν (2)
The scattering length difference Δρ (cm^−2) was calculated using the known chemical composition of the protein and the solvent, and ν (cm^3/g), the specific volume of the protein in the solution that was calculated via density measurement of the solvent and the solution. The micelle aggregation number was then calculated by dividing the molecular weight of the micelles determined with Eq. 1, by the molecular weight of a single protein molecule.
For a particle of arbitrary shape with a scattering density difference of Δρ(r), the pair distance distribution function p(r) (PDDF) is given by: p(r)=r^2Δ ρ^2(r) (3) where Δ ρ^2(r) is the convolution square of Δρ(r) averaged for all directions in space. The PDDF is related to the scattered intensity l(q) by a Fourier transformation, and it enables the determination of the overall shape and size of the scattering objects.
[formula] λ is the wavelength of the incident radiation and θ is the angle between the scattered and incident beam. The function ƒ(r)=p(r)/r (6) is useful to identify flat plate-like particles, although it has no direct physical meaning. For lamellae, this function starts with a linearly increasing part and becomes almost flat when r is equal to the thickness of the lamella. For flat particles with a finite base area, the outer part decreases linearly because of boundary losses. The thickness of the lamella can then be read from the transition point.
The structural characteristics of the micelles in the two pH environments were studied by cryo-TEM and SAXS (Small Angle X-ray Scattering). Cryo-TEM was used to determine the shape of the micelles and to estimate their dimensions between 4 and 40° C. This information was further used to accurately calculate the micelles' dimensions from the SAXS data, and to study how the size and shape are affected by temperature. SAXS measurements also provided the critical micelle concentration (CMC) and the micelle aggregation numbers as a function of temperature. Experiments were performed in the concentration range of 0.1-40 mg/mL protein, at low pH (between 2.1 and 2.6) in dilute lactic acid solution (6 wt %) or HCl and in aqueous solutions at pH 6.7-7.3 in absence of salts or the presence of up to 0.1M NaCl.
SAXS measurements were used to determine the shape and dimensions of the micelles at low pH more precisely, and to evaluate the micelle molecular weight (i.e., the aggregation number). The scattering curves of 20 mg/mL β-casein in lactic acid solution (pH 2.6, IS 0.0022) at different temperatures are shown in FIG. 3a. […]

Molecule: Cc1ccc(-c2cc(C(F)(F)F)nn2-c2ccc(S(N)(=O)=O)cc2)cc1 [Celecoxib, celecoxib, reference compound]
- Solubility in aqueous buffer (observation) [1]: poor solubility

Molecule: CC(C)CCC[C@@H](C)[C@H]1CC[C@H]2[C@@H]3CC=C4C[C@@H](O)CC[C@]4(C)[C@H]3CC[C@]12C [Cholesterol, cholesterol]
- Solubility in aqueous buffer (observation) [1]: does not dissolve in buffer at all

B1: β-CN: Sigma beta-casein raw material powder (protein, UniProt P02666 16-224, looked up)
Beta-casein: RELEELNVPGEIVESLSSSEESITRINKKIEKFQSEEQQQTEDELQDKIHPFAQTQSLVYPFPGPIPNSLPQNIPPLTQTPVVVPPFLQPEVMGVSKVKEAMAPKHKEMPFPKYPVEPFTESQSLTLTDVENLHLPLPLLQSWMHQPHQPLPPTVMFPPQSVLSLSQSKVLPVPQKAVPYPQRDMPIQAFLLYQEPVLGPVRGPFPIIV
- Average water content of lyophilized (dried) powders ([2]; data of Tables 5-7): more than 10 % w/w
- % water, AVR ([2]; β-CN Sigma material, lyophilization time none, average): 13.0%
- % water ([2]; β-CN Sigma material, single sample): 15.0% and 9.4% and 14.7%

B2: β-casein dried: empty β-casein micelles after lyophilization and re-suspension (protein, UniProt P02666 16-224, looked up)
Beta-casein: B1 Beta-casein
modifications: lyophilized micelles
notes: empty β-casein micelles after lyophilization and re-suspension
- Density [3]: 1.23 g/mL
- Rg (from Guinier apr.) [4]: 8.1 nm
- V, from a, b [4]: 2841 nm^3
